System: p1-encoded leu2 (Q180*)
Assay: Large-scale p1 fluctuation tests of p1-encoded leu2 (Q180*), per-base substitution rate
Type: cell-based, S. cerevisiae
Settings: per-base substitution rate, p1-encoded leu2 (Q180*), large-scale fluctuation test
Text: All three TP-DNAP1 libraries were screened through small scale p1 fluctuation tests in a metastable S. cerevisiae strain, OR-Y24. OR-Y24 contains w.t. p1 and recombinant p1 that lacks w.t. TP-DNAP1, and instead, encodes a standardized fluorescence reporter of p1 copy number (Table 1), and a disabled version of the LEU2 selection marker (leu2 (Q180*)). As described previously (Ravikumar et al., 2014), leu2 (Q180*) contains a C→T mutation at base 538 in LEU2 at a site permissive to all single point mutants that generate missense mutations. Reversion to functional LEU2 can be detected on medium lacking leucine.
Large-scale fluctuation tests of p1-encoded leu2 (Q180*) were performed to precisely determine per-base substitution rates for individually cloned or isolated TP-DNAP1 variants. Large-scale p1 fluctuation tests are performed similarly to small-scale p1 fluctuation tests, with several modifications. First, large-scale p1 fluctuation tests were typically performed with 36-48 replicates. For highly error-prone TP-DNAP1s obtained from later rounds of screening, fewer replicates (3-16) were used, which is sufficient for similar precision (Foster et al., 2006). Second, p1 copy number was determined by the flow cytometry method, described below. Third, cell titers were measured for each fluctuation test to estimate the average number of cells per culture. Cell resuspensions were diluted and plated on solid SC-UH medium, and colony counts were determined after incubation at 30° C. for 2-3 days. Alternatively, cell resuspensions were diluted and subject to an event-count measurement via flow cytometry. Fourth, inoculums of highly error-prone TP-DNAP 1 s occasionally contained pre-existing mutants, despite the 1:10,000 dilution, so mutant frequencies were estimated by plating pre-cultures on solid SC-UHLW, pH 5.8 medium. Plates were incubated for 2-3 days, in parallel with cultures grown for fluctuation tests. Pre-culture mutant titers were counted to estimate the number of replicates in the fluctuation test expected to contain pre-existing mutants (n). Revertants were counted from all replicates of the fluctuation tests, counts were sorted, and n replicates with the highest counts were omitted from calculations.
To calculate per-base substitution rates, fluctuation data were analyzed by the maximum likelihood method, implemented using newton.LD.plating in rSalvador 1.7 (Zheng, 2017). Phenotypic mutation rates were calculated by normalizing to the average number of cells per culture. Phenotypic mutation rates were divided by the measured p1 copy number and by the number of ways leu2 (Q180*) can revert to LEU2 (2.33 for the ochre codon) to yield per-base substitution rates. 95% confidence intervals were similarly scaled by these factors. All data related to large-scale p1 fluctuation tests are fully described in Table 2.

Molecule	Mutation rate (s.p.b.)
I777K, L909F (protein) MDYKDKALNDLRNVYADFDSLPLDFRQILIKDRATLLQKEDVEKKILERQEDAKKYAEYLKQSEIPERISLPNIKRHKGVSISFEETSEDMVLEPRPFIFDGLNIRCFRRETIFSLKNKILNMVKESSSFKNVSRQSVSFMYFKIFNKGKVIASTKSVNIYEDKIDERLEDLCNNFDDVLKKIIDVTYGYESLFVSETYSYVIFYAKSIYFPQPRCVNNWGNNIPNILTFDSFKLFTANKNNVSCIKQCSRFLWQKDFNTLEEMIEYKNGNICIVTPQLHINDVRDIKSFNDIRLYSESPIKTFSVIDNTITYLFYFKEHLGVIFNITKSRHDRRVTKFSPLSKFSDVKNITVCFDIESYFDPEKESNQVNIPFICCASIIYNKVIGNIVDFEGRDCVAQMIEYVVDICGELNISSVELIAHNGGGYDFHYILSSMYNPAAIKNILIRNNSFISFNFAHDGVKFSVKDSYSFLLCSLANASKAFLNEETFKKTDFPHHDLKTADDLYKVYKEWSSVNTEINHVVEKEKLLITSEHIVNFTKNDKSKTLIEWSKDYCRNDVLVLSKVWLEFKNAVEDIFNCELVDQTMTLAGLSYKLFQANMPFDVELRHPNKEDYFNMREALIGGRCISVNGIYKDVLCLDVKSLYPASMAFYDQPYGSFKRVSSRPKDELGIYYVRVTPNRNNKSNFFPIRSHNKITYNNFEESTYIAWYTNVDIDIGLSEGHNIEYIPFDSYGNIGYSWSKKGKIFEKYIKDVLYKLKIKYEKQNNKVKRNVIKKIMNSLWGKFAQKWVNFEYFIKSEDDIDFESEEAYKIWDTDFMLIKKIKESTYSSKPIQNGVFTLSWARYHMKSIWDAGAKEGAECIYSDTDSIFVHKEHFKKNAKFMLNGLKVPIIGSEVGQLELECEFDKFLCAGKKQYMGFYTYFQDGKPCIKEKKRFKGIPSNYIIPELYAHLLSGADKEAKIQFLKFRREWGSVKGYIENKTVKAT	2.22 × 10^−7 s.p.b.
I777K, K934W (protein) MDYKDKALNDLRNVYADFDSLPLDFRQILIKDRATLLQKEDVEKKILERQEDAKKYAEYLKQSEIPERISLPNIKRHKGVSISFEETSEDMVLEPRPFIFDGLNIRCFRRETIFSLKNKILNMVKESSSFKNVSRQSVSFMYFKIFNKGKVIASTKSVNIYEDKIDERLEDLCNNFDDVLKKIIDVTYGYESLFVSETYSYVIFYAKSIYFPQPRCVNNWGNNIPNILTFDSFKLFTANKNNVSCIKQCSRFLWQKDFNTLEEMIEYKNGNICIVTPQLHINDVRDIKSFNDIRLYSESPIKTFSVIDNTITYLFYFKEHLGVIFNITKSRHDRRVTKFSPLSKFSDVKNITVCFDIESYFDPEKESNQVNIPFICCASIIYNKVIGNIVDFEGRDCVAQMIEYVVDICGELNISSVELIAHNGGGYDFHYILSSMYNPAAIKNILIRNNSFISFNFAHDGVKFSVKDSYSFLLCSLANASKAFLNEETFKKTDFPHHDLKTADDLYKVYKEWSSVNTEINHVVEKEKLLITSEHIVNFTKNDKSKTLIEWSKDYCRNDVLVLSKVWLEFKNAVEDIFNCELVDQTMTLAGLSYKLFQANMPFDVELRHPNKEDYFNMREALIGGRCISVNGIYKDVLCLDVKSLYPASMAFYDQPYGSFKRVSSRPKDELGIYYVRVTPNRNNKSNFFPIRSHNKITYNNFEESTYIAWYTNVDIDIGLSEGHNIEYIPFDSYGNIGYSWSKKGKIFEKYIKDVLYKLKIKYEKQNNKVKRNVIKKIMNSLWGKFAQKWVNFEYFIKSEDDIDFESEEAYKIWDTDFMLIKKIKESTYSSKPIQNGVFTLSWARYHMKSIWDAGAKEGAECIYSDTDSIFVHKEHFKKNAKFMLNGLKVPIIGSEVGQLELECEFDKLLCAGKKQYMGFYTYFQDGKPCIKEWKRFKGIPSNYIIPELYAHLLSGADKEAKIQFLKFRREWGSVKGYIENKTVKAT	2.71 × 10^−7 s.p.b.

— patent publication US20230242902A1, “A HIGHLY ERROR-PRONE […] R[…] FOR TARGETED CONTINUOUS EVOLUTION IN VIVO” (The Regents of the University of California, priority 2017, published 2023)
